Assay results as given in doi:10.1101/2023.02.23.529646 (bioRxiv, 2023).
Residue numbers refer to the chain shown, from its start. Names may count otherwise.

B1: ECSIT_(CTER-W324A) (domain or fragment)
chain: QDPVELAMFGLRHMEPDLSARVTIYQVPLPKDSTGAADPPQPHIVGIQSPDQQAALARHNPARPVFVEGPFSLWLRNKCVYYHILRADLLPPEEREVEETPEEANLYYPMQLDLEYVRSGWDNYEFDINEVEEGPVFAMCMAGAHDQATMAKWIQGLQETNPTLAQIPVVFRLAGSTRELQTSSAGLEEPPLPEDHQEEDDNLQRQQQGQS
B2: ECSIT_(CTER-Y327F) (domain or fragment)
chain: B1 chain with A104W, Y107F
B3: ECSIT_(CTER-Y328A) (domain or fragment)
chain: B1 chain with A104W, Y108A
B4: ACAD9WT (res. 38-621) (enzyme)
chain: AFAKELFLGKIKKKEVFPFPEVSQDELNEINQFLGPVEKFFTEEVDSRKIDQEGKIPDETLEKLKSLGLFGLQVPEEYGGLGFSNTMYSRLGEIISMDGSITVTLAAHQAIGLKGIILAGTEEQKAKYLPKLASGEHIAAFCLTEPASGSDAASIRSRATLSEDKKHYILNGSKVWITNGGLANIFTVFAKTEVVDSDGSVKDKITAFIVERDFGGVTNGKPEDKLGIRGSNTCEVHFENTKIPVENILGEVGDGFKVAMNILNSGRFSMGSVVAGLLKRLIEMTAEYACTRKQFNKRLSEFGLIQEKFALMAQKAYVMESMTYLTAGMLDQPGFPDCSIEAAMVKVFSSEAAWQCVSEALQILGGLGYTRDYPYERILRDTRILLIFEGTNEILRMYIALTGLQHAGRILTTRIHELKQAKVSTVMDTVGRRLRDSLGRTVDLGLTGNHGVVHPSLADSANKFEENTYCFGRTVETLLLRFGKTIMEEQLVLKRVANILINLYGMTAVLSRASRSIRIGLRNHDHEVLLANTFCVEAYLQNLFSLSQLDKYAPENLDEQIKKVSQQILEKRAYICAHPLDRTC
B5: ACAD9_(S191A) (enzyme)
chain: B4 chain with S154A
B6: ACAD9_(VLCAD) (enzyme)
chain: B4 chain with L364M, L367M, Y369F, T370M
B7: ACAD9_(A184S) (enzyme)
chain: B4 chain with A147S
B8: ACAD9_(A184S/SR194TS) (enzyme)
chain: B4 chain with A147S, S157T, R158S
B9: VLCADWT (res. 72-655) (enzyme)
chain: SFAVGMFKGQLTTDQVFPYPSVLNEEQTQFLKELVEPVSRFFEEVNDPAKNDALEMVEETTWQGLKELGAFGLQVPSELGGVGLCNTQYARLVEIVGMHDLGVGITLGAHQSIGFKGILLFGTKAQKEKYLPKLASGETVAAFCLTEPSSGSDAASIRTSAVPSPCGKYYTLNGSKLWISNGGLADIFTVFAKTPVTDPATGAVKEKITAFVVERGFGGITHGPPEKKMGIKASNTAEVFFDGVRVPSENVLGEVGSGFKVAMHILNNGRFGMAAALAGTMRGIIAKAVDHATNRTQFGEKIHNFGLIQEKLARMVMLQYVTESMAYMVSANMDQGATDFQIEAAISKIFGSEAAWKVTDECIQIMGGMGFMKEPGVERVLRDLRIFRIFEGTNDILRLFVALQGCMDKGKELSGLGSALKNPFGNAGLLLGEAGKQLRRRAGLGSGLSLSGLVHPELSRSGELAVRALEQFATVVEAKLIKHKKGIVNEQFLLQRLADGAIDLYAMVVVLSRASRSLSEGHPTAQHEKMLCDTWCIEAAARIREGMAALQSDPWQQELYRNFKSISKALVERGGVVTSNPLGF
B10: VLCAD_(ACAD9) (enzyme)
chain: B9 chain with M366L, M369L, F371Y, M372T

Assays:
ACAD9WT (res. 38-621) = biological target: B4; test: mass photometry
dynamic light scattering = biological target: the molecule itself; test: dynamic light scattering
mass photometry = biological target: the molecule itself; test: mass photometry

| Binder | binding result (ACAD9WT (res. 38-621)) | stoichiometry N (mass photometry) | other results |
| --- | --- | --- | --- |
| B1 | binds |  |  |
| B2 | binds |  |  |
| B3 | binds |  |  |
| B4 |  |  | stoichiometry N (dynamic light scattering): 2 |
| B5 |  | 2 |  |
| B6 |  | 2 |  |
| B7 |  |  | binding result (dynamic light scattering): binds |
| B8 |  | 2 |  |
| B9 |  | 2 |  |
| B10 |  | 2 |  |
